Results taken from patent US20070134657A1, “Methods and compositions relating to gradient exposed cells” (GENERAL HOSPITAL CORPORATION, THE, priority 2002, published 2007).

Columns and labels:
T-cell = conditions: response to SDF-1; cited from earlier work
human neutrophils = assay: Effect of signaling pathway inhibitors on directional neutrophil migration in IL-8 gradients (microfluidic device); format: cell-based; conditions: pretreated cells; IL-8 gradients in which chemotaxis and fugetaxis were seen
Source text: Microfluidic Migration Assay and Timelapse Microscopy: Neutrophils (1×10^3 cells) were placed uniformly across the migration channel and allowed to migrate under a linear gradient of human Interleukin-8 (72 a.a.; PeproTech, Rocky Hill, N.J.) in IMDM with 0.5% (w/v) FCS flowing at 0.1 mm/sec. […] Brightfield images were taken every 30 seconds using a C4742-95 Hamamatsu digital camera (Hamamatsu, Japan) controlled by IPLab 3.6.1 (Scanalytics, Fairfax, Va.). Cell movement was always observed at a set point along the migration channel. Gradients were also calibrated at this set point. Migration was quantified for all cells across the gradient.
Signaling Pathway Inhibitors: Cells were treated with pertussis toxin (100 ng/mL; 30 minutes at 37° C.), wortmannin (1 μM, 10 μM; 20 minutes at 37° C., 8-Br-cAMP (1 mM; 15 minutes at room temperature), 8-Br-cGMP (1 mM; 15 minutes at room temperature) (Sigma-Aldrich), or the CXCR2 non-peptide antagonist, SB225002 (1 pM, 100 pM, 1 nM, or 1 μM for 15 minutes at 37° C.; Calbiochem, Calif.). Immediately after treatment cells were seeded in migration channel of the microfluidic device and allowed to migrate as described above.
Since receptor occupancy is known to play a role in directional decision making and gradient sensing in the context of chemotaxing eukaryotic cells, it was postulated that chemokine receptor occupancy by a chemokine might also play a critical role in the decision of a cell to move up or down a chemokine gradient. Thus, a SB25002, the specific non-peptide antagonist of the IL-8 receptor, CXCR2 was utilized to examine this postulate. Neutrophils were pretreated with SB225002 at concentrations between 1 pM and 1 μM and then exposed to 0 to 1.2 μM gradients of IL-8 in microfabricated devices as described above. Videos of cell migration were analysed using MetaMorph and MathLab software to generate normalized angular frequencies determined for cells migrating in each of the three sectors of the gradient. The absence of inhibitor generates a normalized angular frequency of 1.0 whereas inhibition of fugetactic or chemotactic angular frequencies results in a normalized frequency of <1.0 and augmentation of either directional response results in a value greater than 1. This analysis allows to precisely quantitate the effect of a given concentration of inhibitor on the directional decision of the cell to move up or down a gradient. […] Furthermore, although IL-8 binds to both CXCR2 and CXCR1 on the cell surface, of the human neutrophil bi-directional signaling was evidently critically dependent on CXCR2.
It had been previously shown that the signaling pathway for chemotaxis is distinct from that for chemorepulsion or fugetaxis. […] The study of neutrophil migration in microfabricated devices allows to examine precisely the effects of these inhibitors on quantitative parameters of cell migration including the directional bias of cells in the context of precisely defined and stable chemokine gradients. Primary human neutrophils were pretreated with known inhibitors of the chemokine signal transduction pathway including pertussis toxin, wortmannin, genistein, 8-Br-cAMP and 8-Br-cGMP and then exposed to IL-8 gradients in which chemotaxis and fugetaxis were seen. The effect of the inhibitor on directional migration towards or away from the chemokine was quantitated by determining the directional motility index of cells migrating in the context of these gradients. Movement vector angles corresponding to movement up the gradient (30 to 150 degrees—see FIG. 13) were defined as chemotactic and measured movement vector angles corresponding to movement down the gradient (210 to 330 degrees—see figure) were defined as fugetactic. The directional choice of cells to move up or down a chemokine gradient were therefore compared in the presence and the absence of an inhibitor. […]

rat neutrophils = assay: Intravital microscopy of rat neutrophil migration in response to diffusive CINC-1 gradients in mesentery; format: in vivo
Description: Intravital Microscopy: Male Sprague Dawley rats (200-300 g) were purchased from Harlan-Olac (Bicester, U.K.). Male rats were prepared for intravital microscopy. Briefly, following sedation with i.m. Hypnorm (fentanyl-fluanisone mixture, 0.1 ml; Janssen-Cilag, High Wycombe, U.K.), animals were anesthetized with i.v. sodium pentobarbitone (30 mg/kg loading dose followed by 30 mg/kg/h; Rhône Mérieux, Harlow, U.K). The animals were maintained at 37° C. on a custom-built heated microscope stage. Following midline abdominal incision, the mesentery adjoining the terminal ileum was carefully arranged over a glass window in the microscope stage and pinned in position. The mesentery was kept warm and moist by continuous application of Tyrode's balanced salt solution (Sigma Aldrich). Mesenteric post-capillary venules (15-40 μm in diameter) were viewed on an upright fixed-stage microscope (Axioskop F S, Carl Zeiss, Welwyn Garden City, U.K.) fitted with water immersion objectives. Images were captured with a digital camera (C5810-01, Hamamatsu Photonics U.K., Enfield, U.K.) for viewing on a monitor (PVM-1453 MD, Sony U.K., Weybridge, U.K.) and storage by videocassette recorder (AG-MD830E, Panasonic U.K., Bracknell, U.K.). […] Firmly adherent leukocytes were defined as those that remained stationary for at least 30 s within a 100-μm segment of a venule. Extravasated leukocytes were defined as those in the perivenular tissue adjacent to, but remaining within a distance of 150 μm of a 100-μm length of vessel segment under study. After baseline readings of rolling, adhesion and transmigration were taken; CINC-1 at final concentrations of 10^−9 M, […] or 10^−7M (Peprotech) was applied topically to the mesenteric tissue in the superfusion buffer. Leukocyte responses within the chosen vessels were quantified for up to 180 minutes, during which the topical application of CINC-1 was maintained. In each animal, multiple vessel segments from appropriate vessels were quantified. Videos of migrating cells were constucted for quantitative and mathematical analysis as described above; at the end of certain in vivo experiments, the mesentery was stained with acridine orange (Sigma Aldrich), a nuclear dye, scanned with a 488 nm laser line generated from an Argon laser, and observed by confocal microscopy (LSM5 PASCAL, Axioskop II FS, Carl Zeiss) to verify that migrating cells were neutrophils.
Mathematical Modeling of Continuous Gradients in vivo: The chemokine concentration profile in the mesentery at steady state was predicted using a novel in vivo model based on classical diffusion equations applied on a spherical model of the postcapillary venule, and the assumption that the receptor-dependent transport of the chemokine by the endothelial cells is the main mechanism for generating the gradient the vicinity of postcapillary venules. The steady state solution was calculated for the concentration gradient around a sphere in a homogenous medium, with the two boundary conditions: 1) the concentration far from the sphere is constant, and 2) the chemokine flux across the surface of the sphere also constant. […] Thus, the steady state concentration C at distance r from the capillary wall was calculated as: [formula] […]

Nc1ncnc2c1nc(Br)n2[C@@H]1O[C@@H]2COP(=O)(O)O[C@H]2[C@H]1O [8-Br-cAMP]
sensitivity of T-cell fugetaxis to inhibition, compared with chemotaxis (T-cell): differentially more sensitive to inhibition
effect on neutrophil chemotaxis (angular frequency, movement up the gradient) (human neutrophils): augmented
effect on neutrophil fugetaxis (angular frequency, movement down the gradient) (human neutrophils): selectively inhibited

O=c1c(-c2ccc(O)cc2)coc2cc(O)cc(O)c12 [genistein]
sensitivity of T-cell chemotaxis to inhibition, compared with fugetaxis (T-cell): differentially more sensitive to inhibition

B1: CINC-1: rat IL-8 orthologue, cytokine induced neutrophil chemoattractant-1, signals via CXCR2 (protein, UniProt P14095 25-96, looked up)
Growth-regulated alpha protein: APVANELRCQCLQTVAGIHFKNIQSLKVMPPGPHCTQTEVIATLKNGREACLDPEAPMVQKIVQKMLKGVPK
neutrophil response to superfused chemokine (rat neutrophils; 1 nM): minimal neutrophil adhesion to the luminal surface of the venule and transmigration
neutrophil response to superfused chemokine (rat neutrophils; 100 nM): accumulation of neutrophils around the vessel without transmigration
mean chemotropism index (MCI) in vivo (rat neutrophils; diffusive gradient with peak concentration of 10 nM): +0.32+/−0.06
mean chemotropism index (MCI) in vivo (rat neutrophils; gradient replaced with peak concentration of 100 nM): −0.35+/−0.12
peak chemokine concentration at which peak transendothelial migration of neutrophils from the blood occurred (rat neutrophils; superfusion at 1 nM, 10 nM or 100 nM for 90 minutes): 10 nM
